The assay addresses SARS-CoV-2 wild-type (WT) spike protein trimer (SARS-CoV-2) (UniProt P0DTC2). Nature of the assay: SPR.

From paper doi:10.1101/2023.09.18.558353 come the findings set out here.

Take “LCB1 mini-binder protein (designed binder)”: the Kd was determined as 1.22 nM.
